Patent US20260150817A1
Where two headings read alike, the source gives them in different places.

Assays:
[1] = target: SARS-COV-2 Spike(S) protein with an inactivated furin site, on HEK293-Spike cells (293-SARS2-S-dfur, (SARS-CoV-2) (UniProt P0DTC2))
[2] = target: SARS-Cov2 Spike Active Trimer SAT (R&D Systems; Catalog No. 10549-CV) (SARS-CoV-2) (UniProt P0DTC2)
[3] = target: SARS-Cov2 Spike Active Trimer SAT (R&D Systems; Catalog No. 10549-CV) (SARS-CoV-2) (UniProt P0DTC2); assay: ELISA, serially diluted purified Nb-Fc against SAT antigen
[4] = target: SARS-Cov2 Spike Active Trimer SAT (R&D Systems; Catalog No. 10549-CV) (SARS-CoV-2) (UniProt P0DTC2); assay: SPR (Carterra)
[5] = target: SARS-Cov2 Spike Active Trimer SAT (R&D Systems; Catalog No. 10549-CV) (SARS-CoV-2) (UniProt P0DTC2); remark: listed apart in the source
[6] = target: SARS-Cov2 Spike Active Trimer SAT (R&D Systems; Catalog No. 10549-CV) (SARS-CoV-2) (UniProt P0DTC2); assay: SPR (Biacore)

## human SAT Nb-Fc control VH-Ab-8 (HAb8-S) (Fc fusion)
[1]
  GMFI (HEK293-Spike): 430
  GMFI Ratio over No 1st Ab control (HEK293-Spike): 21.1
[2]
  Kd: 19.8 nM
[3]
  EC50: 0.018 nM
[4]
  Kd: 37.3 nM
[5]
  Response: 0.489
  koff: 0.00294 s⁻¹
  kon: 149000 M⁻¹ s⁻¹
[6]
  Kd: 5.7 nM
